Several values for one entry are separate records, joined by “and”; a condition that tells them apart may be missing. Equal entries are not always repeated.
Settings: Homo sapiens; pH 7.2; 25 °C; GdnHCl; CD; MOPS 10 mM; KCl 50 mM; reversible: yes; whole UniProt chain shown

B1: Protein S100-B wild type, P04271 (protein)
chain: MSELEKAMVALIDVFHQYSGREGDKHKLKKSELKELINNELSHFLEEIKEQEVVDKVMETLDNDGDGECDFQEFMAFVAMVTTACHEFFEHE
For B1, the “denaturant midpoint (higher = more stable)” value was 3.2 M and 4.6 M and the unfolding free energy was 17.3 kcal/mol.

Reference: FireProtDB (doi:10.1021/bi0118052)
